Source: patent US20250108100A1, “C-TERMINAL FRAGMENT OF APOLIPOPROTEIN E AND APPLICATION THEREOF IN INHIBITING y-SECRETASE ACTIVITY” (SYNPHATEC (SHANGHAI) BIOPHARMACEUTICAL TECHNOLOGY CO., LTD., priority 2022, published 2025)
“Also recorded” adds a separate entry of the source.

Legend:
[1] = tested on: APP co-expressed in mouse neuron cell line N2A; assay: α-CTF produced by APP co-expressed in N2A cells (Western blot); format: cell-based
Description: (§1) Plasmids were transfected in HEK 293T or N2A cells for 36-48 hours and then lysed in cell lysis buffer [10% 1M tris-HCl (pH=6.8), 4% SDS, 20% glycerol, 0.01% bromophenol blue]. Lysates were shaken at room temperature for 10 min, then boiled for 10 min, and centrifuged at 12,000×g for 10 min. Proteins were run on 8% or 12% Tris-glycine SDS-PAGE and transferred to PVDF membranes (Life Technologies). Samples were incubated overnight at 4° C. with primary antibody diluted in 5% BSA buffer (in 1×TBST). After washing 3 times with 1×TBST, they were incubated with secondary antibody diluted in 5% BSA buffer (in 1×TBST) for 2 hours at room temperature. Finally, after washing 3 times with 1×TBST, the signal was detected by ECL Western blotting substrate (Solarbio, PE0010).
(§2) Data were analyzed by GraphPad Prism software (v6) using unpaired, paired, or one-sample t-tests. Aβ40 and Aβ42 levels were normalized to the corresponding GFP controls. α-CTF levels were normalized to FL-APP and corresponding GFP controls. All data are represented as mean±SEM. Statistical significance was defined as p<0.05. One, two, three and four stars (*) in the graph indicate p-values <0.05, <0.01, <0.001 and <0.0001, respectively.

[2] = tested on: APP and BACE1 co-expressed in N2A cells; assay: Aβ40 ELISA in N2A cells co-expressing APP and BACE1; format: cell-based, mouse
Description: (§3) 48 hours after transfection of HEK 293T cells and N2A cells, or 4.5 days after lentivirus infection of neurons, media and lysates were collected. Aβ40 and Aβ42 in the culture medium and cell lysates were detected by an Aβ ELISA kit as indicated in the protocol. (Invitrogen Technology; KHB3481 for human Aβ40, KHB3441 for human Aβ42 and KMB3481 for mouse Aβ40).
as §2

APPΔΔICD = assay: Aβ40 produced from APPΔΔICD co-expressed with BACE1 in HEK 293T cells (ELISA); format: cell-based, human
Description: The experiment was performed according to the standard procedure in the ELISA analysis kit of Invitrogen Company. • a) The target protein was expressed in HEK 293T cell line. Cells were subcultured one day before transfection, and transfection was performed when the degree of cell adhesion reached 70%-80%. […]
48 hours after transfection of HEK 293T cells and N2A cells, or 4.5 days after lentivirus infection of neurons, media and lysates were collected. Aβ40 and Aβ42 in the culture medium and cell lysates were detected by an Aβ ELISA kit as indicated in the protocol. […]

N100 (NOTCH fragment) = assay: γ-cleavage of NOTCH fragment N100 in HEK 293T cells co-expressing γ-secretase (Western blot); format: cell-based; conditions: N100-V5 and γ-secretase, PF03084014 at 1 uM
Description: as §1

5×FAD mice = assay: Distribution of neuronally expressed ApoE around amyloid plaques in 5×FAD mice (immunofluorescence); format: in vivo, mouse
Description: Mice were anesthetized with isoflurane and perfused with 4% PFA. Dissected mouse brains were fixed overnight in 4% PFA and cryoprotected overnight in 30% sucrose. A cryostat (Leica CM3050S) was used to obtain frozen brain slices ([…]) from fixed and cryoprotected mouse brains. Floating slices were washed 3 times with 1×PBS and then permeabilized with 0.5% Triton-X in 1×PBS for 30 minutes. After blocking with 5% BSA in 1×PBS at room temperature for 1 h, the slices were incubated overnight at 4° C. in 5% BSA (in 1×PBS) buffer comprising the primary antibody. Slices were washed 3 times with 1×PBS and incubated with secondary antibody diluted in 5% BSA (1×PBS) buffer for 1 hour at room temperature. Samples were then washed 3 times with 1×PBS and mounted with Prolong Gold Antifade Mountant (Life Technology).
After being deeply anesthetized with isoflurane, mice (5 weeks old) were placed in a stereotaxic apparatus (RWD Instruments). The zero point (x, y, z, 0, 0, 0) is Bregma. Lentivirus (lentivirus-GFP, lentivirus-ApoE and lentivirus-ApoE-IRES-GFP) and AAV (AAV2/9-hSyn-EGFP-WPRE-pA and AAV2/9-hSyn-ApoECT; purchased from Shanghai Taitool Bioscience Co. Ltd.) were injected into the cortex (x, y, z, +/−1.6, 0, −1) or hippocampus (x, y, z, +/−1.5, −2, −1.5), injected 1 ul on each injection site. The mice were then returned to their cages for rehabilitation after surgery.

APP = assay: Cell surface expression of APP in HEK 293T cells (surface biotinylation, Western blot); format: cell-based
Description: FIGS. 29A-29K show ApoE CT is still able to regulate APP metabolism when α- or β-secretase is inhibited. […] N=9. FIGS. 29C-29D show ELISA assay and statistical analysis of Western blot assay for the effects of ApoE CT on Aβ production from co-expressed APP and BACE1 in HEK 293T cells treated with 1 μM ADAM10 inhibitor GI254023X; control group received no inhibitor treatment. FIG. 29C: Aβ40 in cell culture medium; FIG. 29D: Aβ40 in cell lysates. N=6. FIGS. 29E-29F show Western blot detection and statistical analysis of the effects of ApoE CT on the production of α-CTF from co-expressed APP in HEK 293T cells treated with 5 μM BACE1 inhibitor AZD3839; the control group received no inhibitor treatment. N=10. FIGS. 29G-29H show Western blot detection and statistical analysis of α-CTF produced by co-expressing APPM596V and GFP or ApoE CT in HEK 293T cells, respectively. N=7. […] Cell surface proteins of HEK 293T cells expressing GFP(−) and ApoE CT(+) were labeled with sulfo-N-hydroxysuccinimide-biotin and isolated with streptavidin-coupled agarose beads.

APPSW = assay: Aβ40 produced by Swedish APP mutant (APPSW) in HEK 293T cells (ELISA); format: cell-based, human; conditions: HEK 293T cells expressing APPSW
Description: as §3

B1: ApoE CT: C-terminal fragment of ApoE, positions 216-299 of SEQ ID NO: 12; SEQ ID NO: 33 (protein)
chain: ARMEEMGSRTRDRLDEVKEQVAEVRAKLEEQAQQIRLQAEAFQARLKSWFEPLVEDMQRQWAGLVEKVQAAVGTSAAPVPSDNH
level of α-CTF compared with ApoE2 [1]: significantly increases the level of α-CTF
α-CTF produced by co-expressed APP ([1]; Western blot, vs GFP control): significantly increases α-CTF
total Aβ40 [2]: significantly reduced
Aβ40 produced by APPΔΔICD (APPΔΔICD): no longer reduces Aβ produced by APPΔΔICD; also recorded: does not affect Aβ40; also recorded: failed to reduce Aβ40
γ-secretase-dependent reduction of N100 (N100 (NOTCH fragment)): failed to suppress
migration to and accumulation around amyloid plaques (5×FAD mice; AAV expression in cortex, DG and CA3 neurons): migrated to the subiculum and accumulated in amyloid plaques
accumulation around amyloid plaques (5×FAD mice; lentiviral vectors): a similar distribution pattern was detected around amyloid plaques
APP expression on the cell surface (APP): did not alter APP expression on the cell surface
Aβ40 in cell lysates, reduced by (APPSW): approximately 43%
Aβ40 in the medium, reduced by (APPSW): approximately 76%
